Consider 41 sequences from the nanobody polyreactivity screen of Harvey et al. (2022).

This series can be described thus: yeast display, Sf9 membrane polyspecificity reagent, FACS + sequencing; frameworks hold sequencing errors. The method in brief:
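Using colony PCR, genes from sorted yeast display clones were amplified, then sequenced on MiSeq at 2 × 250 and filtered by CDR length. The clones had been stained with 10% biotinylated, detergent-solubilized Sf9 membrane reagent for 1 hour at 4 °C and sorted by FACS into low and high (top ~1%) gates on anti-HA and streptavidin fluorescence. Polyreactivity labels come from the gate of origin.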
With “QVQLVESGGCLVQAGGSLRLSCAASGNIFGIYTMGLYTHAPGKERELVASIRTGGSTNYADSVKGRFTISRDNAKNTDYLQMNSLKPEDSSVYYCNARKLFSSSYGYWGQGTQVTVSS”, the “polyreactivity (PSR sort gate)” value is recorded as “high polyreactivity”.

On to “QVQLVESGGGLVQAGGSLRLSCAASGRTFFEYAMGWYRQAPGKERELVAIITNGATTNYADSVKGRFTISRDNAKNTVYLQMNSLKPEDTAVYYCAVAKWQPRRRKYYYWGQGTQVTVSS”, for which the “polyreactivity (PSR sort gate)” value is on record as “high polyreactivity”.

As to “QGQLVESGGGLVQAGGSLRLSCAASGSTFAYYAMGWYIPAPGKERELVAAITSRGGSTYYADSVKGRFTISRDNAKNTVYLQMNSLKPEDTAVYYCAAVTRNQGSYRYYYWGQGTQVTVSS”, the “polyreactivity (PSR sort gate)” value is on record as “high polyreactivity”.

For the sequence “QVQLVESGGGLVQAGGSLRLSCAASGRTLQTYVMGWYRQAPGKERELVAAITRGGGSTYYADSVKGRFTISRDNGKNTVFLQMNSLKPVDTSVYYCAASALRFNSRFSHWYIYWGQGTQVTVSS”, the “polyreactivity (PSR sort gate)” value was “high polyreactivity”.

For “QVQLVESGGGLVQAGGSLRLSCAASGFIFPDYAMGWSRQAPGKERELVAAISKRGGSTYYADSVKGRFTISRDNAKNTVYLQMNSLKPEDTAVYYCAAVTSVNPSVFNGNYWGQGTHVTVSS”, the “polyreactivity (PSR sort gate)” value is recorded as “low polyreactivity”.

For the sequence “QVQVVESGGGLVQAGGSLRLSCAASGFIFRYYAMGWYRQAPGKEREFVAAISTSAGSTYYADSVKGRFTISRDNAKNTVYLQMNSLKPEDTAVSYCAAEYWRRASYNYWGQGTQVTVSS”, the “polyreactivity (PSR sort gate)” value is “high polyreactivity”.

As to “QVQLVESGGGLVQAGGSLRLSCAASGSTFTKYDMGWYRQAPGKERELVAAIRSGGDTNYADSVKGRFTISRDNAKNTVYLQMNSLKPEDTAVYYCAAERGPTNHTSYPWYEYHYWGQGTQVTVSS”, the “polyreactivity (PSR sort gate)” value is on record as “low polyreactivity”.

Take “QVQLVESGGGLVQAGGSLRLSCAASGNIFGENAMGWYRQAPGKERELVAAITRIDGNTYYADSVKGRVTISRDNAKNTVYLQMNSLKPEDTAVYYCATDEPVGRYQHNYYWGQGTQVTVSS”: the “polyreactivity (PSR sort gate)” value is listed as “low polyreactivity”.

As for “QVQLVGAGGGLVHAGGSLLLSCAASGFTLGSNAMGWYRQAPGKERALVAASSKSGGSTYYADSVKGRFTISRDNAKNTVYLQMTSLKPEDTAGYYCAARPIHYPPYYYWGQGTQVTVSS”, the “polyreactivity (PSR sort gate)” value is reported as “high polyreactivity”.

Consider “QVQLVESGGGLVQAGGSLPLSCAASGRTFWDNAMGWYRQAPGKERELVATITSGDSTNYADSVKWRFTISRDNAKNTVYLQMNSLKPEDTAVYDCARVIVFDAYEFDYWGQGTQVTVSS”, for which the “polyreactivity (PSR sort gate)” value is given as “low polyreactivity”.

As to “KVQLVESGGGLVQAGGSLRISCAASGSNFGRYAMGWYRQAPGKERELVAAISARGGSTYYADSVKGRFTISRDNAKNTVYLQMNSLKPEDTAFYYCNVLVRYSDQSSDSWGQGTQVTVSS”, the “polyreactivity (PSR sort gate)” value is given as “high polyreactivity”.

On to “QVQLVESGGGLVQAGGSLRISCDASGSTFAWYAMGWYRQAPGKERELVAAISRTGRTYYADSVKGRFTISRDNAKNTVYLQMNRLTPEDTAVYYCAGRIERFYRDQRYDYWGQGTQVTVSS”, for which the “polyreactivity (PSR sort gate)” value is “high polyreactivity”.

In the case of “QVQLVESGGRLVQAGGSLRLSCAASGFILTSYAMGWYRQAPGKERELVAAISSRGGRTYYADSVKGRFTISRDNAKNTVYLQMNSLKPEDTAVYYCNAVVYVVGDFDYWGQGTQVTGSS”, the “polyreactivity (PSR sort gate)” value is reported as “high polyreactivity”.

As to “QVQLVESGGGLVQAGGSLRLICAASGRSFNLYAMGWYRQAPGKERELVAAISYSGGRTYSADSVKGRFTISRDNAKNTVYLQMNSLKPEDTAVYYCNTVRGSVRQAGVGYEYWGQGTQVTVSS”, the “polyreactivity (PSR sort gate)” value is listed as “high polyreactivity”.

Consider “QVQLVESGGGLVQAGGSLRLSCAASGRIYRSYAMGWYRQAPGKERDLVAAITKSGGGTYYADTVKGRYTISRVNAKNTVYLQMNSLNPEDTAVYYCGARGHGGYYYWGQGTQVTVSS”, for which the “polyreactivity (PSR sort gate)” value was “high polyreactivity”.

Consider “QVQLVESGGGLVQAGASLRLSCAASGRILKTYAMGSYRQAPGKERELVAAITGRGGRTYYADSVKGRFTISRDNAKNTFYLQMISLKPEDTAVYYCAAYYGPSRSLYYYWGQGSQVTVSS”, for which the “polyreactivity (PSR sort gate)” value is reported as “high polyreactivity”.

In the case of “QVQLVESGGGLVQAGGSFRLSCAASGSIFVVYAMGWYRQAPGKERELVAAITSGGSTYYADSVKGRFTISRDNAKNTVYLQMNSLKPEDTAVYYCATTYRDGVYELTTFDYWGQGTQVTVSS”, the “polyreactivity (PSR sort gate)” value was “low polyreactivity”.

Turning to “QVQLVESGGGLDQAGGSLRLSCAASGIIFRNYAMGWYRQAPGKERELVATITGDGGSTYYADSVKGRFTISRDNAKNTVYLQMNSLKPEDTAVYYCNADVSKRGWTTYWYGYGYYYWGQGTQVTVSS”, the “polyreactivity (PSR sort gate)” value was “low polyreactivity”.

As to “QVQLVESGGGLVQAGGSLRLSCAASGIIFVRNAMGWYRKAPGKERELVAAISRSGGSTYYADSVKWRFTISRDNAKNTVYLQMNSLKPEDTAVYYCAAVLRLSSGYDYWGQGTQVTVSS”, the “polyreactivity (PSR sort gate)” value was “high polyreactivity”.

On to “QVQLVESGGGLVQAGGSLRLSCAASGSTFYVNAMGWYRQAPGKERELVAAISWTDDSTYYADSVKGRFTISRDNAKNTVYLQMNSLKPEDTAVYYCAAEQYRYYEVEYWGQGTQVTVSS”, for which the “polyreactivity (PSR sort gate)” value is given as “high polyreactivity”.

With “QVQLVESGGGLVQAGGSLRLSCAASGSTFSGNAMGWYRQAPGKERELVAAISWSGDTTYYADSVKGRFTISRDNAKNTVYLQMNSLKPEDTAVYYCAVRYYWRRMNYWGQGTQVTVSS”, the “polyreactivity (PSR sort gate)” value is “high polyreactivity”.

Take “QVQLVESGGGLVQAGGSLRLSSAASGRIFAVNAMGRYRQAPGKERELVASIRWSGGSTNYADSVKGRFTISRDNAKNTVYLQMNSLKPEDTAVYFCAAVIYLWGQGTQVTVSS”: the “polyreactivity (PSR sort gate)” value is reported as “high polyreactivity”.

For the sequence “QVQLVESGGGLVQAGGSLRLSCAASGFILGTYAMGWYRQAPGKERELVAAISRSGGSTYYADSVKGRFTISRDNAKNSVYLQMNSLKPEDTAVYYCNTVRVHGFPIDRIYDYWGQGTQVTVSS”, the “polyreactivity (PSR sort gate)” value is “high polyreactivity”.

As for “QVQLVESGGGLVQAGGSLRLSCAASGNHLRSLSLGWNRQAPGKQRELVAAITSSGASTYYADSVKGRFTNSRDNAKNSVYLQMNSLKPEDSAVYYCAAYLFRRYDYWGQGTQVSVSS”, the “polyreactivity (PSR sort gate)” value was “low polyreactivity”.

In the case of “QVQLVESGGGLVQAGGSLRLSCAASGFTFSVYTMGWYRQAPGNERELVAALRVSSGGTFYADSVKGRFTISRDNAKNTVYLQRNSLKPEDTAVYYCAVDRYTYDPIFSVVRRYDYWGQGTQVTVSS”, the “polyreactivity (PSR sort gate)” value was “high polyreactivity”.

Consider “QVQLVESGGGLVQAGGSLRLSCAASGRTFPSNAMGWYRQAPGKEREFVASITYSGGRTYYADSVKGRFTISRDNAKNTVYLQVNSLKPEDTAVYYCAAYPQFWYLDYNYWGQGTQVTVSS”, for which the “polyreactivity (PSR sort gate)” value is “high polyreactivity”.

As for “QVQLVESGGGLVQAGGTLRLSCAASGSTFGYYTMGWYRQAPGKERELVAAITWSGGSTYYADSVKGRFTISRDNAKKTVYLQMNSLKAEDSAVSYCAADDYWTPFGYSGQGTQVTVSS”, the “polyreactivity (PSR sort gate)” value is “low polyreactivity”.

Turning to “QVQLVESGGGLVQAGGSHRFSCAASGFTFGHDTMGWYRQAPGKERELVAAITWRGGTYYADSEKGRFTISRDNAMNTVYLQMNSMKPEDTAVYYCAKRRASRYYWGQGTQVTVSS”, the “polyreactivity (PSR sort gate)” value is “high polyreactivity”.

“QVQLVESGGGLVQAGGSLRLSCSASGRIFGAYAMGWYRQAPGKERELVAAITSAGSAHYADYVKGRFTISRDNAKNTVYLQMNSLKPEDTAVYYCAADGIARAYVLFYAYDFLYDYWGQGTQVTVSS”: the “polyreactivity (PSR sort gate)” value is reported as “low polyreactivity”.

As to “QVQLVESGRGLVQAGGSLRLSCAASGSIFIVYAMGWYRQAPGKERELVAAISWSGGSTYYADSVKGRFTISRDNAKNTVYLQMNSLKPEDSAVYFCAAKYTLPFRDVKYYSWGQGTQVTVSS”, the “polyreactivity (PSR sort gate)” value is on record as “high polyreactivity”.

As for “QVQLVESGGGLGQAGGSLRLSCTASGRIFPYYAMGWYRQAPGKERELVAALSGRGGRTYYADSVKGRFTISRDNAKNTVYLQMNSLNPEDTAVYYCNARVQAVHYGYWGQGTQVTVSS”, the “polyreactivity (PSR sort gate)” value was “high polyreactivity”.

Consider “QVQLVESGGGLVQAGGSLRLSCAASGLIFRHYVMGWYRQAPGKERELVAAITSRGGTTYYADSVKGRFTISRDNAKNTVYLQMNSLKPEDTAVYYCATVHSYTIQRYDYWGQGTQVTVSS”, for which the “polyreactivity (PSR sort gate)” value is on record as “high polyreactivity”.

On to “QVQLVESGGGLVQAGGSLRLSCAASGSTFVPNDMGGYRQAPGKERELVAAISYSGGSTYYADSVKGRFTISRDNAKNTVYLQMNSLKPEDTAVYYCAADKYLGELDYWGQGTQVTVSS”, for which the “polyreactivity (PSR sort gate)” value is given as “low polyreactivity”.

In the case of “QVQLVESGGGLVQAGGSLRLSCAASGRIISVYAMGWYRQAPGKERELVATITGGNTNYADSVKGRFTISRDNAKNTVYLQMNSLKPEDTAVYYCAKQFLPSGVYYEYDSWGQGTQVTVSS”, the “polyreactivity (PSR sort gate)” value is on record as “low polyreactivity”.

Turning to “QDQLVESGGGLVQAGGSLRLSCAASGNTFNRYAKGWYRQAPGQERELVAAITSDGSTNYADSVKGRFTISRDNAKNTVYIQKNSMKPEDTAVYYCAAEHSGYPVAFYITGYGYDYCGQGTQVTVSS”, the “polyreactivity (PSR sort gate)” value is reported as “low polyreactivity”.

On to “QVQLVESGGGLVQAGGSLRLSCAASGLIFRVYAMGWYRQAPGKERELVAAITWSDGSTYYADSVKGRFTISRDNAKNTVYLQMNSLKPEDTAVYYCATAYFRVYHSRYYYWGQGTQVTVSS”, for which the “polyreactivity (PSR sort gate)” value is “high polyreactivity”.

With “QVQLVESGGGLVQAGGSLRLSCAASGRILLTYAMGWYRQAPGKERELVAAISSDSRTYYADSVKGLFTISRDNAKNTVYLQMNSLKPEDTAVYYCVRRRYKYDYWGQGTQVTVSS”, the “polyreactivity (PSR sort gate)” value is listed as “low polyreactivity”.

Consider “QVQLVESGGGLVQAGGSLRLSCAASGRIFFNYAMGWYRQAPGKERELVAAIRGGGSTYADSVKGRFTISCDNAKNTVYLQMNSLKPEDTAVYYCAARYSGSPYHTRRYYYWGQGTQVTVSS”, for which the “polyreactivity (PSR sort gate)” value was “high polyreactivity”.

Turning to “QVQLVDSGGGLVQAGGSLSLSCAASGRTFVTNAMGWYRQAPGKERELVAAISGNGGSTYYADSVKGRFTISRDNAKNTVYLQMNSLKPEDTAVYYCNKDYHVRYYYWGQGTQVTVSS”, the “polyreactivity (PSR sort gate)” value is listed as “low polyreactivity”.

With “QVQLVESGGGLVQAGGSLRLSCAASGGSFPDNARGWYRQAPGKERELVAAISFSGSSTYADSVKGRFTISRDNAKKTVNLQMNSLKPEDTAVYYCNTDGYIYRYRFDYWGQGTQVTVSS”, the “polyreactivity (PSR sort gate)” value was “low polyreactivity”.

With “QVQLVESGGGLFQAGGSLRLSCAASGRIFSCYAMGWYRQAPGKERELVAAITVRGSTYYADSVKGSFTISRDNAKNTVYLQMNSLKPEDTAVYYCAAGGYPGTTYYGYDFWGQVTQVTVSS”, the “polyreactivity (PSR sort gate)” value was “low polyreactivity”.
